Source: paper PMC13161473 (2025)
Values belong to the binder of their own block, whether it stands above or below them.

Experiments:
[1] = biological target: CI-MPR used for biolayer interferometry (UniProt P11717 41-2491); experiment: BLI
[2] = biological target: T1, recombinant human TRPML1 E1 domain (human); experiment: BLI
T1 chain: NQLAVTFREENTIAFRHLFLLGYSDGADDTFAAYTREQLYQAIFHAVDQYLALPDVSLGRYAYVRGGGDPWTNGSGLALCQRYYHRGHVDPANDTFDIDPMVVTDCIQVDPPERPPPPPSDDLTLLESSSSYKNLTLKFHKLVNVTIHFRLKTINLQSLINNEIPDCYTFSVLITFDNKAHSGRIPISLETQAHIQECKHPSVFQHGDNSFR

[3] = Ca2+ release assay, Daoy cells; settings: glycan lost; control: Siglec-15-flag (wild type)
[4] = plasma membrane Siglec-15 level; settings: glycan lost; control: Siglec-15-flag (wild type)
[5] = immunostaining flag/lamp1, Pearson's correlation; settings: glycan lost; control: Siglec-15-flag (wild type)

Kd [1]: 1.04 nM
Kd [2]: 0.499 nM
B1: recombinant Siglec-15-N (263 AAs) (domain or fragment)
chain: FVRTKIDTTENLLNTEVHSSPAQRWSMQVPPEVSAEAGDAAVLPCTFTHPHRHYDGPLTAIWRAGEPYAGPQVFRCAAARGSELCQTALSLHGRFRLLGNPRRNDLSLRVERLALADDRRYFCRVEFAGDVHDRYESRHGVRLHVTAAPRIVNISVLPSPAHAFRALCTAEGEPPPALAWSGPALGNSLAAVRSPREGHGHLVTAELPALTHDGRYTCTAANSLGRSEASVYLFRFHGASGAST

B2: Siglec-15: N172Q (protein)
parent chain: MEKSIWLLACLAWVLPTGSFVRTKIDTTENLLNTEVHSSPAQRWSMQVPPEVSAEAGDAAVLPCTFTHPHRHYDGPLTAIWRAGEPYAGPQVFRCAAARGSELCQTALSLHGRFRLLGNPRRNDLSLRVERLALADDRRYFCRVEFAGDVHDRYESRHGVRLHVTAAPRIVNISVLPSPAHAFRALCTAEGEPPPALAWSGPALGNSLAAVRSPREGHGHLVTAELPALTHDGRYTCTAANSLGRSEASVYLFRFHGASGASTVALLLGALGFKALLLLGVLAARAARRRPEHLDTPDTPPRSQAQESNYENLSQMNPRSPPATMCSP
other: lysosomal Ca2+ release [3]: decreases
localisation_or_trafficking [4]: no change
localisation_or_trafficking [5]: decreases
